Laboratory results as given in article PMC9156758, “Cryo-EM structures of human A2ML1 elucidate the protease-inhibitory mechanism of the A2M family” (Nature Communications, 2022).

Key:
Experiment in all cases: cell-based or functional assay
[1] = molecular target: T1, Thermolysin from Geobacillus stearothermophilus (Geobacillus stearothermophilus, UniProt P00800 233-548)
T1 sequence (looked up): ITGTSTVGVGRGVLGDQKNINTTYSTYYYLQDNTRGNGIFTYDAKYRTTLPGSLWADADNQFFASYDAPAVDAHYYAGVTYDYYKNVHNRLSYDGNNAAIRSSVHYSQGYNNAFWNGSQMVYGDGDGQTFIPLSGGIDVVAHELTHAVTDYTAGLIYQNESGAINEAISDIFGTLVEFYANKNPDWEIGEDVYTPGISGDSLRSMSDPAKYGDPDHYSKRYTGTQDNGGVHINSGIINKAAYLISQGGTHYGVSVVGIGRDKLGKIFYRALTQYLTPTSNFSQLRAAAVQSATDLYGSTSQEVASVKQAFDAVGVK

[2] = molecular target: Bovine pancreatic α-chymotrypsin (bovine)
[3] = molecular target: T2, Human neutrophil elastase (HNE) (human, UniProt P08246 30-267)
T2 sequence (looked up): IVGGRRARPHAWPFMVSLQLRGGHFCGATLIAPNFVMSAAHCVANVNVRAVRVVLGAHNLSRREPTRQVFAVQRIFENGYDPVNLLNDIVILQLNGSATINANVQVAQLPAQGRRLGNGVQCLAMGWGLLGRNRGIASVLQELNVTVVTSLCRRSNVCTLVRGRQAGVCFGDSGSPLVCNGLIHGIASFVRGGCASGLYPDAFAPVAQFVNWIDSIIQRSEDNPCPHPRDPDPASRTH

inhibition of thermolysin's β-casein-cleaving activity, A2ML1:thermolysin molar ratios up to 4:1, without BAPN [1]: ~95 % inhibited
inhibition of β-casein-cleaving activity at a 4:1 A2ML1:protease molar ratio [2]: ~65 % inhibited
inhibition of β-casein-cleaving activity at a 4:1 A2ML1:protease molar ratio [3]: ~10 % inhibited
B1: Human alpha-2 macroglobulin-like 1 (A2ML1), recombinant wild type, native (natural protein, UniProt A8K2U0 18-1454, looked up)
chain: EELPNYLVTLPARLNFPSVQKVCLDLSPGYSDVKFTVTLETKDKTQKLLEYSGLKKRHLHCISFLVPPPAGGTEEVATIRVSGVGNNISFEEKKKVLIQRQGNGTFVQTDKPLYTPGQQVYFRIVTMDSNFVPVNDKYSMVELQDPNSNRIAQWLEVVPEQGIVDLSFQLAPEAMLGTYTVAVAEGKTFGTFSVEEYVLPKFKVEVVEPKELSTVQESFLVKICCRYTYGKPMLGAVQVSVCQKANTYWYREVEREQLPDKCRNLSGQTDKTGCFSAPVDMATFDLIGYAYSHQINIVATVVEEGTGVEANATQNIYISPQMGSMTFEDTSNFYHPNFPFSGKIRVRGHDDSFLKNHLVFLVIYGTNGTFNQTLVTDNNGLAPFTLETSGWNGTDVSLEGKFQMEDLVYNPEQVPRYYQNAYLHLRPFYSTTRSFLGIHRLNGPLKCGQPQEVLVDYYIDPADASPDQEISFSYYLIGKGSLVMEGQKHLNSKKKGLKASFSLSLTFTSRLAPDPSLVIYAIFPSGGVVADKIQFSVEMCFDNQVSLGFSPSQQLPGAEVELQLQAAPGSLCALRAVDESVLLLRPDRELSNRSVYGMFPFWYGHYPYQVAEYDQCPVSGPWDFPQPLIDPMPQGHSSQRSIIWRPSFSEGTDLFSFFRDVGLKILSNAKIKKPVDCSHRSPEYSTAMGAGGGHPEAFESSTPLHQAEDSQVRQYFPETWLWDLFPIGNSGKEAVHVTVPDAITEWKAMSFCTSQSRGFGLSPTVGLTAFKPFFVDLTLPYSVVRGESFRLTATIFNYLKDCIRVQTDLAKSHEYQLESWADSQTSSCLCADDAKTHHWNITAVKLGHINFTISTKILDSNEPCGGQKGFVPQKGRSDTLIKPVLVKPEGVLVEKTHSSLLCPKGKVASESVSLELPVDIVPDSTKAYVTVLGDIMGTALQNLDGLVQMPSGCGEQNMVLFAPIIYVLQYLEKAGLLTEEIRSRAVGFLEIGYQKELMYKHSNGSYSAFGERDGNGNTWLTAFVTKCFGQAQKFIFIDPKNIQDALKWMAGNQLPSGCYANVGNLLHTAMKGGVDDEVSLTAYVTAALLEMGKDVDDPMVSQGLRCLKNSATSTTNLYTQALLAYIFSLAGEMDIRNILLKQLDQQAIISGESIYWSQKPTPSSNASPWSEPAAVDVELTAYALLAQLTKPSLTQKEIAKATSIVAWLAKQHNAYGGFSSTQDTVVALQALAKYATTAYMPSEEINLVVKSTENFQRTFNIQSVNRLVFQQDTLPNVPGMYTLEASGQGCVYVQTVLRYNILPPTNMKTFSLSVEIGKARCEQPTSPRSLTLTIHTSYVGSRSSSNMAIVEVKMLSGFSPMEGTNQLLLQQPLVKKVEFGTDTLNIYLDELIKNTQTYTFTISQSVLVTNLKPATIKVYDYYLPDEQATIQYSDPCE
modifications: internal thioester Cys970-Gln973; N-glycans (Asn120, Asn328, Asn857 named)
